Earlier results as cited in paper PMC10243098.
pKi: −log10 of the molar value.

Molecular target: histone H4 N-terminal 20-mer peptide-CoA bisubstrate inhibitor 1-20 (Homo sapiens) (UniProt P62805)

Sequence of HAT1 (O14929 2-419): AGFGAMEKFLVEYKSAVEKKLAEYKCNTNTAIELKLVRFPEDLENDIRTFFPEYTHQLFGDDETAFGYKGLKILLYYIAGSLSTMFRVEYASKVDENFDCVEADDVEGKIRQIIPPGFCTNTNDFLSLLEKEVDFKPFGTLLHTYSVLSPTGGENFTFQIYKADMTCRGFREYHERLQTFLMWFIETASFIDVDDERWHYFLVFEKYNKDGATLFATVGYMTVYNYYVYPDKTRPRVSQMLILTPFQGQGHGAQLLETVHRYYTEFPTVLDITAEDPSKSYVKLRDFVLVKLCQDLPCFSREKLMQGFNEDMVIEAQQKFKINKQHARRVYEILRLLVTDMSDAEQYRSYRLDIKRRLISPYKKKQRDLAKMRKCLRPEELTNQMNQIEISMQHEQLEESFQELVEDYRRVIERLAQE

pKi: 9.00
Substance: HAT1 (from UniProt O14929)
